The values that follow come from patent US20110008766A1.

B1: DVD715 (antibody)
VH: QVQLQQSGAELMKPGASVKISCKASGYTFTSYWIEWIKQRPGHGLEWIGEILPGTGSLNNNEKFRDKATFTADTSSNTAYMQLSSLTSEDSAVYYCARGYRYDGWFAYWGQGTLVTVSAASTKGPQVQLQQSGAELMKPGASVKISCKASGYTFTSYWIEWIKQRPGHGLEWIGEILPGTGSLNNNEKFRDKATFTADTSSNTAYMQLSSLTSEDSAVYYCARGYRYDGWFAYWGQGTLVTVSA
VL: DIQMTQSPASLSASVGETVTITCRTSENIYSYLAWYQQKPGKSPHLLVYNTKTLAEGVPSRFSGSGSGTQFSLKINSLQPEDFGSYYCQHHYDSPLTFGSGTKLELKRTVAAPDIQMTQSPASLSASVGETVTITCRTSENIYSYLAWYQQKPGKSPHLLVYNTKTLAEGVPSRFSGSGSGTQFSLKINSLQPEDFGSYYCQHHYDSPLTFGSGTKLELKR
B2: DVD746 (bispecific antibody)
VH: QVQLQQSGAELMKPGASVKISCKASGYTFTSYWIEWIKQRPGHGLEWIGEILPGTGSLNNNEKFRDKATFTADTSSNTAYMQLSSLTSEDSAVYYCARGYRYDGWFAYWGQGTLVTVSAASTKGPSVFPLAPEVQLQQSGPELVKPGASMKISCKASDYSFTAYTIHWMKQSHGKNLEWIGLINPYNGGTSYNQKFQGRATLTVDKSSSIAYMELLSLTSEDSAVYYCARRGYDREGHYYAMDYWGQGTSVTVSS
VL: DIQMTQSPASLSASVGETVTITCRTSENIYSYLAWYQQKPGKSPHLLVYNTKTLAEGVPSRFSGSGSGTQFSLKINSLQPEDFGSYYCQHHYDSPLTFGSGTKLELKRTVAAPSVFIFPPDIQMTQSPASLAASVGETVTITCRASENIYTFLAWYQQKQGKSPQLLVYTTKTLAEGVPSRFSGSGSGTQFSLKIKSLQPEDFGSYYCQHHYGLPLTFGAGTKLELKR
B3: DVD744 (antibody)
VH: QIQLVQSGPELKKPGETVKISCKASGYTFTDYSMHWVKQAPGKGLKWMGWIHTETGEPRYVDDFKGRFAFSLETSASTAYLQINNLKNEDTATYFCARDSYYFGSSYYFDYWGQGTTLTVSSASTKGPSVFPLAPQIQLVQSGPELKKPGETVKISCKASGYTFTDYSMHWVKQAPGKGLKWMGWIHTETGEPRYVDDFKGRFAFSLETSASTAYLQINNLKNEDTATYFCARDSYYFGSSYYFDYWGQGTTLTVSS
VL: DTVMTQSHKFMSTSVGDRVSITCKASQDVSSAVAWYQQKPGQSPKLLIYSASYRYTGVPDRFTGSGSGMDFTFTISSVQAEDLAVYYCQQHYSTPLTFGAGTKLELERTVAAPSVFIFPPDTVMTQSHKFMSTSVGDRVSITCKASQDVSSAVAWYQQKPGQSPKLLIYSASYRYTGVPDRFTGSGSGMDFTFTISSVQAEDLAVYYCQQHYSTPLTFGAGTKLELER
B4: DVD745 (antibody)
VH: QIQLVQSGPELKKPGETVKISCKASGYTFTDYSMHWVKQAPGKGLKWMGWIHTETGEPRYVDDFKGRFAFSLETSASTAYLQINNLKNEDTATYFCARDSYYFGSSYYFDYWGQGTTLTVSSASTKGPQIQLVQSGPELKKPGETVKISCKASGYTFTDYSMHWVKQAPGKGLKWMGWIHTETGEPRYVDDFKGRFAFSLETSASTAYLQINNLKNEDTATYFCARDSYYFGSSYYFDYWGQGTTLTVSS
VL: DTVMTQSHKFMSTSVGDRVSITCKASQDVSSAVAWYQQKPGQSPKLLIYSASYRYTGVPDRFTGSGSGMDFTFTISSVQAEDLAVYYCQQHYSTPLTFGAGTKLELERTVAAPDTVMTQSHKFMSTSVGDRVSITCKASQDVSSAVAWYQQKPGQSPKLLIYSASYRYTGVPDRFTGSGSGMDFTFTISSVQAEDLAVYYCQQHYSTPLTFGAGTKLELER
B5: DVD750 (antibody)
VH: EVQLQQSGPELVQPGASMKISCKASGYSFTDYTMNWVKQSHGKNLEWIGLINPYNGGSRYNQKFMAKATLTVDKSSNTAYMELLSVTSEDSAVYYCARDAGYFGSGFYFDYWGQGTTLTVSSASTKGPSVFPLAPEVQLQQSGPELVQPGASMKISCKASGYSFTDYTMNWVKQSHGKNLEWIGLINPYNGGSRYNQKFMAKATLTVDKSSNTAYMELLSVTSEDSAVYYCARDAGYFGSGFYFDYWGQGTTLTVSS
VL: DIVMTQSHKFMSTSVGDRVSITCKASQDVSTAVAWYQQKPGQSPKLLIYSASYRSTGVPDRFTGSGSGTDFTFTISSVQAEDLAVYYCQQHYSTPTFGAGTKLELKRTVAAPSVFIFPPDIVMTQSHKFMSTSVGDRVSITCKASQDVSTAVAWYQQKPGQSPKLLIYSASYRSTGVPDRFTGSGSGTDFTFTISSVQAEDLAVYYCQQHYSTPTFGAGTKLELKR
B6: DVD748 (bispecific antibody)
VH: EVQLQQSGPELVKPGASMKISCKASDYSFTAYTIHWMKQSHGKNLEWIGLINPYNGGTSYNQKFQGRATLTVDKSSSIAYMELLSLTSEDSAVYYCARRGYDREGHYYAMDYWGQGTSVTVSSASTKGPSVFPLAPQVQLQQSGAELMKPGASVKISCKASGYTFTSYWIEWIKQRPGHGLEWIGEILPGTGSLNNNEKFRDKATFTADTSSNTAYMQLSSLTSEDSAVYYCARGYRYDGWFAYWGQGTLVTVSA
VL: DIQMTQSPASLAASVGETVTITCRASENIYTFLAWYQQKQGKSPQLLVYTTKTLAEGVPSRFSGSGSGTQFSLKIKSLQPEDFGSYYCQHHYGLPLTFGAGTKLELKRTVAAPSVFIFPPDIQMTQSPASLSASVGETVTITCRTSENIYSYLAWYQQKPGKSPHLLVYNTKTLAEGVPSRFSGSGSGTQFSLKINSLQPEDFGSYYCQHHYDSPLTFGSGTKLELKR
B7: DVD747 (bispecific antibody)
VH: QVQLQQSGAELMKPGASVKISCKASGYTFTSYWIEWIKQRPGHGLEWIGEILPGTGSLNNNEKFRDKATFTADTSSNTAYMQLSSLTSEDSAVYYCARGYRYDGWFAYWGQGTLVTVSAASTKGPSVFPLAPASTKGPSVFPLAPEVQLQQSGPELVKPGASMKISCKASDYSFTAYTIHWMKQSHGKNLEWIGLINPYNGGTSYNQKFQGRATLTVDKSSSIAYMELLSLTSEDSAVYYCARRGYDREGHYYAMDYWGQGTSVTVSS
VL: DIQMTQSPASLSASVGETVTITCRTSENIYSYLAWYQQKPGKSPHLLVYNTKTLAEGVPSRFSGSGSGTQFSLKINSLQPEDFGSYYCQHHYDSPLTFGSGTKLELKRTVAAPSVFIFPPTVAAPSVFIFPPDIQMTQSPASLAASVGETVTITCRASENIYTFLAWYQQKQGKSPQLLVYTTKTLAEGVPSRFSGSGSGTQFSLKIKSLQPEDFGSYYCQHHYGLPLTFGAGTKLELKR
B8: DVD716 (antibody)
VH: QVQLQQSGAELMKPGASVKISCKASGYTFTSYWIEWIKQRPGHGLEWIGEILPGTGSLNNNEKFRDKATFTADTSSNTAYMQLSSLTSEDSAVYYCARGYRYDGWFAYWGQGTLVTVSAASTKGPSVFPLAPQVQLQQSGAELMKPGASVKISCKASGYTFTSYWIEWIKQRPGHGLEWIGEILPGTGSLNNNEKFRDKATFTADTSSNTAYMQLSSLTSEDSAVYYCARGYRYDGWFAYWGQGTLVTVSA
VL: DIQMTQSPASLSASVGETVTITCRTSENIYSYLAWYQQKPGKSPHLLVYNTKTLAEGVPSRFSGSGSGTQFSLKINSLQPEDFGSYYCQHHYDSPLTFGSGTKLELKRTVAAPSVFIFPPDIQMTQSPASLSASVGETVTITCRTSENIYSYLAWYQQKPGKSPHLLVYNTKTLAEGVPSRFSGSGSGTQFSLKINSLQPEDFGSYYCQHHYDSPLTFGSGTKLELKR

Where only a bound is given, the exact number is not on record here.

The target of the experiment is HIV antigen. As to the kind of experiment: FRET quenching titration in solution; one value given for outer and inner domain.
With B1, the Kd is < 0.02 nM. For B2, the Kd turned out to be 0.2 nM. The same measure for B3: 0.4 nM. With B4, the Kd came to 0.4 nM. That is a sub-nanomolar value.

As for B5, the Kd is < 0.02 nM.

With B6, the Kd is < 0.03 nM. B7: the Kd was < 0.06 nM.

Consider B8, for which the dissociation constant Kd was < 0.02 nM.

By Kd is commonly meant the concentration at which binding is half-saturated. Read a low Kd as a tighter complex.
